IntAct's records for PubMed 35512704

B1: Mothers against decapentaplegic homolog 4 (Homo sapiens), Q13485 (parent)
chain: MDNMSITNTPTSNDACLSIVHSLMCHRQGGESETFAKRAIESLVKKLKEKKDELDSLITAITTNGAHPSKCVTIQRTLDGRLQVAGRKGFPHVIYARLWRWPDLHKNELKHVKYCQYAFDLKCDSVCVNPYHYERVVSPGIDLSGLTLQSNAPSSMMVKDEYVHDFEGQPSLSTEGHSIQTIQHPPSNRASTETYSTPALLAPSESNATSTANFPNIPVASTSQPASILGGSHSEGLLQIASGPQPGQQQNGFTGQPATYHHNSTTTWTGSRTAPYTPNLPHHQNGHLQHHPPMPPHPGHYWPVHNELAFQPPISNHPAPEYWCSIAYFEMDVQVGETFKVPSSCPIVTVDGYVDPSGGDRFCLGQLSNVHRTEAIERARLHIGKGVQLECKGEGDVWVRCLSDHAVFVQSYYLDREAGRAPGDAVHKIYPSAYIKVFDLRQCHRQMQQQAATAQAAAAAQAAAVAGNIPGPGSVGGIAPAISLSAAAGIGVDDLRRLCILRMSFVKGWGPDYPRQSIKETPCWIEIHLHRALQLLDEVLHTMPIADPQPLD
partner: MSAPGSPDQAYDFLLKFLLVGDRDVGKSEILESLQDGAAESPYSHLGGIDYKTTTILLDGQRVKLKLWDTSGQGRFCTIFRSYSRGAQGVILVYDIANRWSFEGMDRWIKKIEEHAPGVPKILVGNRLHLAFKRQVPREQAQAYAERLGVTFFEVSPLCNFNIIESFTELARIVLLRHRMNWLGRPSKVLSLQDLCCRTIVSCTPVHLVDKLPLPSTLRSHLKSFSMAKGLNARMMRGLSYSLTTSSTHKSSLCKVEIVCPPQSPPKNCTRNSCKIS
B2: Mothers against decapentaplegic homolog 4 (Homo sapiens), Q13485 (parent)
chain: B1 chain
partner: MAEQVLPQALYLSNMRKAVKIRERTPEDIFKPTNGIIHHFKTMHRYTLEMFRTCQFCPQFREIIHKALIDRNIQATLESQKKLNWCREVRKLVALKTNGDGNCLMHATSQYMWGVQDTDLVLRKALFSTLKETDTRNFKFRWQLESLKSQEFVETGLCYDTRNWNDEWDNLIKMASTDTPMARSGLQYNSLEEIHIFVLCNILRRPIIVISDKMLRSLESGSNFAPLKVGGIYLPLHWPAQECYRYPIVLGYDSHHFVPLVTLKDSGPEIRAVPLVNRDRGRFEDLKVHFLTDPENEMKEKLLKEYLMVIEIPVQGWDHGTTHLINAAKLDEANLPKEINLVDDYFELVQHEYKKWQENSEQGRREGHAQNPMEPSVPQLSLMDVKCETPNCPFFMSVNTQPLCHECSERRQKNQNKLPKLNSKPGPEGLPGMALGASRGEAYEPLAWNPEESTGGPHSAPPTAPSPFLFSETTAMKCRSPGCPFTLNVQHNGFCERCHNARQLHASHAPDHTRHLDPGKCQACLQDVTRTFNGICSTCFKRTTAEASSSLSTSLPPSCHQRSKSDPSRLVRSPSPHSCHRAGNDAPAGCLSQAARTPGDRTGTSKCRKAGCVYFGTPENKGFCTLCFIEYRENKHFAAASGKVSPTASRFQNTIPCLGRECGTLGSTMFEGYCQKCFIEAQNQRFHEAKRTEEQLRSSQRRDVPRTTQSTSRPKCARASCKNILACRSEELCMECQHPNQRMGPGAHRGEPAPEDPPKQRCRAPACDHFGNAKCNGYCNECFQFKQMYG
B3: Mothers against decapentaplegic homolog 4 (Homo sapiens), Q13485 (parent)
chain: B1 chain
partner: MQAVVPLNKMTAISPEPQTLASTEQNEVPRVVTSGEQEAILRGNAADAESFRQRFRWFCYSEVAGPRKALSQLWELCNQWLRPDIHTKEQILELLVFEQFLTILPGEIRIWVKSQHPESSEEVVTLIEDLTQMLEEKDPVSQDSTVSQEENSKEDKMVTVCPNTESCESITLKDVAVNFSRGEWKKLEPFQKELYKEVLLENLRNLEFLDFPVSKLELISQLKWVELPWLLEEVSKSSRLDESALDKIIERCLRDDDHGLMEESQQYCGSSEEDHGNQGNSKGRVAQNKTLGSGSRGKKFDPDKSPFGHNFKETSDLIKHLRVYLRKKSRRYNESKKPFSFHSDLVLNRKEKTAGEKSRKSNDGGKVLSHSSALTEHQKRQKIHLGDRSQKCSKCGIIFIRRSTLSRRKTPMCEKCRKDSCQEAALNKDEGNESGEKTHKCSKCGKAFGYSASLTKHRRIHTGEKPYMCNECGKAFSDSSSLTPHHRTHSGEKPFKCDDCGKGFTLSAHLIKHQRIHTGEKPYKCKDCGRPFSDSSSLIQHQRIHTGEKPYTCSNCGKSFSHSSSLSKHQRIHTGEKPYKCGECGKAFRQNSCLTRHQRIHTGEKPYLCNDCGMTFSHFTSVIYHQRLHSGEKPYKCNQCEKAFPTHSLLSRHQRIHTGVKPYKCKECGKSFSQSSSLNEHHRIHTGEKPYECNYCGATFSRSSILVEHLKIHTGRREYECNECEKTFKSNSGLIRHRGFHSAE
B4: Mothers against decapentaplegic homolog 4 (Homo sapiens), Q13485 (parent)
chain: B1 chain
partner: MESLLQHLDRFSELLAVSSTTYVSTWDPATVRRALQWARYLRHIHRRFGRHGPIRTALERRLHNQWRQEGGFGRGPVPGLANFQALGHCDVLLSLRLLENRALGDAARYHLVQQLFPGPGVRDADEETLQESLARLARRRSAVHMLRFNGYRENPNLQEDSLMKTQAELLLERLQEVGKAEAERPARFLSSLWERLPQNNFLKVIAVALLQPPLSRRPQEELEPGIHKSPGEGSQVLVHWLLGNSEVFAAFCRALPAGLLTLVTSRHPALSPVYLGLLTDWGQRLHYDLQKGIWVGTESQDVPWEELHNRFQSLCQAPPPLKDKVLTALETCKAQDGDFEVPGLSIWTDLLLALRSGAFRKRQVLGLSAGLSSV
B5: Mothers against decapentaplegic homolog 4 (Homo sapiens), Q13485 (parent)
chain: B1 chain
partner: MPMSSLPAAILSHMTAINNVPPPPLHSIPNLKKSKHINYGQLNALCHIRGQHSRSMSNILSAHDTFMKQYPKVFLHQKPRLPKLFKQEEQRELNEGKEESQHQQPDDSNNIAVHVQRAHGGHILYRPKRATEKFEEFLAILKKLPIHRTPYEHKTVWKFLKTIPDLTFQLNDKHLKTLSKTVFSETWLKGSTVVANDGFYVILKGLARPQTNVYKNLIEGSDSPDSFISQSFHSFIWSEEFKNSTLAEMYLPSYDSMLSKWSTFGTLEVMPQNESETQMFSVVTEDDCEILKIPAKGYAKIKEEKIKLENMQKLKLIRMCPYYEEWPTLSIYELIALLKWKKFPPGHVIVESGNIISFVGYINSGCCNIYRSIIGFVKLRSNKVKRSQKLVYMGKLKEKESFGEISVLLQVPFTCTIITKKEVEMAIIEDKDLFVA
B6: Mothers against decapentaplegic homolog 4 (Homo sapiens), Q13485 (parent)
chain: B1 chain
partner: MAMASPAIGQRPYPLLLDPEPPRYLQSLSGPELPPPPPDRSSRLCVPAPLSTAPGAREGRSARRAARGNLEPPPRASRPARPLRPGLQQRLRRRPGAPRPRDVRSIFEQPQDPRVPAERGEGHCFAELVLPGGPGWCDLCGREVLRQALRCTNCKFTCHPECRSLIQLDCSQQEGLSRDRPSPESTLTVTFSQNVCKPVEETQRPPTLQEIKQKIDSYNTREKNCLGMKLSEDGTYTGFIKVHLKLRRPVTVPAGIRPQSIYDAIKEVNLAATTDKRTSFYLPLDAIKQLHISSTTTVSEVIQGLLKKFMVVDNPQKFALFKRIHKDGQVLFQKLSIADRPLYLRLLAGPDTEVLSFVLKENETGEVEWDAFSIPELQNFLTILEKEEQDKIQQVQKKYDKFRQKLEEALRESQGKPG
B7: Mothers against decapentaplegic homolog 4 (Homo sapiens), Q13485 (parent)
chain: B1 chain
partner: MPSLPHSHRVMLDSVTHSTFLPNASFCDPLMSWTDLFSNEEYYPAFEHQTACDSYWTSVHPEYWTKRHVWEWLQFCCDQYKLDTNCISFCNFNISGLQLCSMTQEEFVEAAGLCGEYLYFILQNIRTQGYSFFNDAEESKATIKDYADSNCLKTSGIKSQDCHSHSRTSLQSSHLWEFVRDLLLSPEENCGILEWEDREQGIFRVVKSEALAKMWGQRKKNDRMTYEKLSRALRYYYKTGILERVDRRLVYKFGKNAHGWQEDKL

Variants of: B1
Details: with rb40a_human RAB40A

Variant	effect of a mutation on the interaction
G386D	with no effect

Variants of: B2
Details: with tnap3_human TNFAIP3, P21580

Variant	effect of a mutation on the interaction
G386D	with no effect

Variants of: B3
Details: with zn483_human ZNF483, Q8TF39

Variant	effect of a mutation on the interaction
R361C	with no effect

Variants of: B3
Details: with zn483_human ZNF483, Q8TF39
Remark: another data set of the same source

Variant	effect of a mutation on the interaction
R361H	with no effect

Variants of: B4
Details: with fancf_human FANCF

Variant	effect of a mutation on the interaction
G386D	with no effect

Variants of: B5
Details: with cnbd1_human CNBD1, Q8NA66

Variant	effect of a mutation on the interaction
R361H	with no effect

Variants of: B6
Details: with rasf5_human RASSF5, Q8WWW0

Variant	effect of a mutation on the interaction
G386D	with no effect

Variants of: B6
Details: with rasf5_human RASSF5, Q8WWW0
Remark: another data set of the same source

Variant	effect of a mutation on the interaction
R361H	with no effect

Variants of: B7
Details: with elf5_human ELF5, Q9UKW6

Variant	effect of a mutation on the interaction
R361C	with no effect

Variants of: B7
Details: with elf5_human ELF5, Q9UKW6
Remark: another data set of the same source

Variant	effect of a mutation on the interaction
R361H	with no effect

Variants of: B7
Details: with elf5_human ELF5, Q9UKW6
Remark: another data set of the same source

Variant	effect of a mutation on the interaction
G386D	with no effect
